This test deals with HIV-1 YU2 gp120 S375A mutant (HIV-1 YU2). Nature of the test: SPR. In general terms: SPR reads the build-up and loss of mass on a sensor chip optically.

pIC50: −log10 of the molar value.

A word on the pIC50: it is the negative decadic logarithm of the IC50, by convention in mol/L. Read a high pIC50 as a small IC50. As for KR21 biotinylated peptide triazole, the pIC50 is 5.89.
